Patent US20040009571A1 (published 2004)
Residue numbers refer to the chain shown, from its start. In names and notes the source's numbering stands.

Key:
[1] = target: STAT1 N-domain (S12A) (human) (UniProt P42224); assay: analytical ultracentrifugation, sedimentation equilibrium; self-association
[2] = target: the molecule itself; assay: analytical ultracentrifugation, sedimentation equilibrium; self-association (monomer 15,223 Da)
Protocol: (§1) As described below, point mutations in STAT1 were introduced at several sites at each of Interface I and II. The point mutation introduced in each of the STAT1 N-domain mutant proteins is indicated in the first column. The approximate molecular weight estimated by sedimentation equilibrium experiments, and migration as a monomer or dimer species on gel filtration analysis, is shown for each mutant protein.
(§2) For gel filtration analysis, 1.5 mg of purified STAT N domain protein in a volume of 500 μl was run on a 120 ml Superdex 75 column at a flow rate of 0.5 ml/min, in 50 mM Tris, pH 8.0, 100 mM NaCl and 1 mM DTT. Equilibrium sedimentation experiments were performed using a Beckman Optima XL-A analytical ultracentrifuge with an An-60 Ti rotor and six-sector cells. STAT N-domain proteins at concentrations of 0.65, 0.32 and 0.16 mg/ml were centrifuged in the gel filtration buffer, at 25,000 rev/min. at 4° C. for 20 h. Subsequently, absorbance measurements at 280 nm were taken in 0.001 cm radial steps and equilibrium was ascertained by comparing scans taken at 1 h intervals. The Optima XL-A/XL-I data analysis software from Beckman Coulter was used for data processing and curve fitting. A partial specific volume of 0.73 cm³/g was used and background absorbance was corrected empirically by allowing the baseline to float during the fitting calculations.

[3] = target: the molecule itself; assay: analytical ultracentrifugation, sedimentation equilibrium; self-association
Protocol: as §1, §2

[4] = target: the molecule itself; assay: gel filtration on Superdex 75 (self-association)
Protocol: as §2

[5] = target: the molecule itself; assay: analytical ultracentrifugation, sedimentation equilibrium (self-association)
Source text: Not only is Interface II more extensive than Interface I, it also involves interactions between hydrophobic residues (unlike the essentially polar nature of Interface I). Certain residues at interface II were individually replaced by Ala (Table 1) and the mutant STAT N-domains were examined for dimerization. […] The results for mutations at the other side of the interface provide evidence for interference with dimer formation. M28A migrated as an intermediate between dimer and monomer on gel filtration analysis, but appeared as a dimer by analytical ultracentrifugation analysis. […] The hydrophobic nature of the residues at positions 77 and 78 is conserved between STAT1 and STAT4, which has leucine residues at both positions. Likewise, Met 28 is conserved in STAT4.
For gel filtration analysis, 1.5 mg of purified STAT N domain protein in a volume of 500 μl was run on a 120 ml Superdex 75 column at a flow rate of 0.5 ml/min, in 50 mM Tris, pH 8.0, 100 mM NaCl and 1 mM DTT. […] Subsequently, absorbance measurements at 280 nm were taken in 0.001 cm radial steps and equilibrium was ascertained by comparing scans taken at 1 h intervals. […] A partial specific volume of 0.73 cm³/g was used and background absorbance was corrected empirically by allowing the baseline to float during the fitting calculations.

In the case of “STAT1 N-domain (S12A) (from UniProt P42224 1-124)”, the molecular weight by sedimentation equilibrium [1] is reported as 17 kDa.

B1: wild type STAT1 N-domain (human STAT1 amino acid residues 1 to 124) (other, UniProt P42224 1-124, looked up)
chain: MSQWYELQQLDSKFLEQVHQLYDDSFPMEIRQYLAQWLEKQDWEHAANDVSFATIRFHDLLSQLDDQYSRFSLENNFLLQHNIRKSKRNLQDNFQEDPIQMSMIIYSCLKEERKILENAQRFNQ
notes: range 1-124; Expressed in E. coli as a GST fusion and released with TEV protease; also called N-domain of human STAT1
With B1 the “molecular weight by sedimentation equilibrium” value (shortened to “molecular weight”) [2] was ~28 kDa.

B2: STAT1 N-domain (R70A) (other, human, UniProt P42224 1-124, looked up)
chain: B1 chain with R70A
notes: range 1-124; Interface I mutant; GST fusion cleaved with TEV protease
B2 was tested, and the “molecular weight” value [3] was ~27 kDa.

B3: STAT1 N-domain (Q8A) (other, human, UniProt P42224 1-124, looked up)
chain: B1 chain with Q8A
notes: range 1-124; Interface II mutant; GST fusion cleaved with TEV protease
In the case of B3, the “molecular weight” value [3] is reported as ~27 kDa.

B4: STAT1 N-domain (L15A) (other, human, UniProt P42224 1-124, looked up)
chain: B1 chain with L15A
notes: as for B3
B4 was tested, and the “molecular weight” value [3] was ~28 kDa.

B5: STAT1 N-domain (M28A) (other, human, UniProt P42224 1-124, looked up)
chain: B1 chain with M28A
notes: as for B3
For B5, the “molecular weight” value [3] was ~26 kDa.

B6: STAT1 N-domain (E29A) (other, human, UniProt P42224 1-124, looked up)
chain: B1 chain with E29A
notes: as for B3
B6 was tested, and the “molecular weight” value [3] was ~27 kDa.

B7: STAT1 N-domain (F77A) (other, human, UniProt P42224 1-124, looked up)
chain: B1 chain with F77A
notes: range 1-124; Interface II mutant; GST fusion cleaved with TEV protease; Its CD spectrum was identical to wild type; also called STAT1 F77A
With B7 the binding result [4] was “no binding (tested: 1.5 mg in 500 µl)” and the “molecular weight” value [2] was ~15 kDa.

B8: STAT1 N-domain (L78A) (other, human, UniProt P42224 1-124, looked up)
chain: B1 chain with L78A
notes: range 1-124; Interface II mutant; GST fusion cleaved with TEV protease; Its CD spectrum was identical to wild type; also called STAT1 L78A
With B8 the binding result [5] was “no binding (tested: 0.65, 0.32 and 0.16 mg/ml)” and the “molecular weight” value [2] was ~15 kDa.

B9: STAT1 N-domain (W37F) (other, human, UniProt P42224 1-124, looked up)
chain: B1 chain with W37F
notes: range 1-124; Interface I mutant; GST fusion cleaved with TEV protease; also called N-domain of STAT1 (W37F)
In the case of B9, the “molecular weight” value [3] is reported as ~28 kDa.

B10: STAT1 N-domain (Q41A) (other, human, UniProt P42224 1-124, looked up)
chain: B1 chain with Q41A
notes: as for B2
In the case of B10, the “molecular weight” value [3] is reported as ~27 kDa.

B11: STAT1 N-domain (Q36A) (other, human, UniProt P42224 1-124, looked up)
chain: B1 chain with Q36A
notes: as for B2
In the case of B11, the “molecular weight” value [3] is reported as ~29 kDa.
